From the Human Domainome abundance scans (Beltran et al. 2025)
± gives the uncertainty stated by the source.

B1: TOX high mobility group box family member 3, residues 256 to 323; numbered along this chain, O15405 (parent)
chain: QKPVSAYALFFRDTQAAIKGQNPNATFGEVSKIVASMWDSLGEEQKQVYKRKTEAAKKEYLKALAAYR

Variants of: B1
Assay: abundance fitness (aPCA) (normalised: wild type 0, dead -1); higher = more abundant; growth selection in yeast, the domain comes from the species named
Settings: Homo sapiens
In the case of E44G, the abundance fitness is reported as -0.17 ± 0.06. With E44Y the abundance fitness was -0.955 ± 0.25. Work on E44R yielded an abundance fitness of -0.359 ± 0.07. Work on E44I yielded an abundance fitness of -0.613 ± 0.19. E44M showed an abundance fitness of -0.493 ± 0.096. E44W gave an abundance fitness of -0.515 ± 0.073. Variant E44F has an abundance fitness of -0.541 ± 0.061. With E44K the abundance fitness was 0.066 ± 0.099. With E44S the abundance fitness was -0.101 ± 0.05. E44N showed an abundance fitness of -0.11 ± 0.13. Variant E44T has an abundance fitness of -0.072 ± 0.076. For E44C, the abundance fitness was 0.023 ± 0.18. E44D showed an abundance fitness of 0.069 ± 0.067. Variant E44A has an abundance fitness of -0.116 ± 0.051. Variant E44V has an abundance fitness of -0.209 ± 0.046. Work on E44L yielded an abundance fitness of -0.556 ± 0.062. In the case of S40V, the abundance fitness is reported as -0.167 ± 0.058. In the case of S40T, the abundance fitness is reported as 0.099 ± 0.061. S40G gave an abundance fitness of 0.009 ± 0.052. In the case of S40L, the abundance fitness is reported as -0.258 ± 0.055. In the case of S40D, the abundance fitness is reported as -0.223 ± 0.11. S40M showed an abundance fitness of -0.164 ± 0.078. For S40H, the abundance fitness was -0.092 ± 0.12. Variant S40Q has an abundance fitness of 0.003 ± 0.069. With S40P the abundance fitness was -1.01 ± 0.16. With S40N the abundance fitness was 0.005 ± 0.1. In the case of S40R, the abundance fitness is reported as -0.004 ± 0.05. With S40Y the abundance fitness was -0.295 ± 0.094. S40I showed an abundance fitness of 0.435 ± 0.11. S40E gave an abundance fitness of 0.01 ± 0.042. For S40C, the abundance fitness was -0.338 ± 0.15. With S40A the abundance fitness was 0.005 ± 0.062. In the case of S40W, the abundance fitness is reported as -0.838 ± 0.15. W38G gave an abundance fitness of -0.855 ± 0.12. W38R gave an abundance fitness of -0.918 ± 0.12. Work on W38T yielded an abundance fitness of -1.28 ± 0.37. W38V showed an abundance fitness of -1.07 ± 0.14. Variant W38C has an abundance fitness of -0.743 ± 0.11. W38F gave an abundance fitness of -0.716 ± 0.2. For W38H, the abundance fitness was -0.727 ± 0.45. For W38M, the abundance fitness was -0.416 ± 0.098. Variant W38I has an abundance fitness of -1.2 ± 0.42. W38E gave an abundance fitness of -0.653 ± 0.12. W38S showed an abundance fitness of -0.863 ± 0.098. With W38K the abundance fitness was -0.799 ± 0.16. Work on W38D yielded an abundance fitness of -0.789 ± 0.21. W38Y showed an abundance fitness of -0.206 ± 0.14. W38P showed an abundance fitness of -1.03 ± 0.22. W38N gave an abundance fitness of -0.843 ± 0.26. Variant L41H has an abundance fitness of -0.766 ± 0.19. L41E showed an abundance fitness of -0.922 ± 0.16. L41T gave an abundance fitness of -0.298 ± 0.13. Variant L41I has an abundance fitness of -0.187 ± 0.15. With L41Q the abundance fitness was -0.718 ± 0.2. L41M showed an abundance fitness of 0.09 ± 0.079. For L41W, the abundance fitness was -1.05 ± 0.14. For L41A, the abundance fitness was -0.225 ± 0.068. With L41F the abundance fitness was -0.507 ± 0.15. In the case of L41P, the abundance fitness is reported as -0.724 ± 0.2. Work on L41Y yielded an abundance fitness of -0.902 ± 0.23. Variant L41C has an abundance fitness of -0.592 ± 0.11. With L41G the abundance fitness was -0.474 ± 0.07. Variant L41K has an abundance fitness of -0.931 ± 0.14. With L41D the abundance fitness was -0.847 ± 0.34. L41V showed an abundance fitness of -0.29 ± 0.086. Work on L41N yielded an abundance fitness of -1.16 ± 0.46. M37S gave an abundance fitness of -0.265 ± 0.056. With M37K the abundance fitness was 0.037 ± 0.065. With M37Y the abundance fitness was -0.826 ± 0.32. With M37T the abundance fitness was -0.036 ± 0.075. In the case of M37E, the abundance fitness is reported as -0.104 ± 0.065. M37L showed an abundance fitness of -0.219 ± 0.047. M37A gave an abundance fitness of -0.063 ± 0.071. M37V gave an abundance fitness of -0.317 ± 0.064. In the case of M37W, the abundance fitness is reported as -0.874 ± 0.12. Variant M37I has an abundance fitness of -0.422 ± 0.13. With M37G the abundance fitness was -0.486 ± 0.067. In the case of M37R, the abundance fitness is reported as 0.013 ± 0.042. For M37F, the abundance fitness was -0.427 ± 0.13. M37N gave an abundance fitness of -0.114 ± 0.13. In the case of M37C, the abundance fitness is reported as -0.186 ± 0.084. Variant M37D has an abundance fitness of -0.488 ± 0.16. For M37H, the abundance fitness was -0.227 ± 0.085. In the case of E43I, the abundance fitness is reported as -0.339 ± 0.18. E43P showed an abundance fitness of 0.058 ± 0.056. E43K gave an abundance fitness of -0.218 ± 0.1. Variant E43D has an abundance fitness of -0.151 ± 0.12. E43G showed an abundance fitness of -0.43 ± 0.099. For E43R, the abundance fitness was -0.274 ± 0.075. For E43S, the abundance fitness was -0.118 ± 0.051. E43W showed an abundance fitness of -0.359 ± 0.07. E43N showed an abundance fitness of -0.374 ± 0.17. With E43Y the abundance fitness was 0.076 ± 0.11. For E43M, the abundance fitness was -0.255 ± 0.12. With E43H the abundance fitness was -0.27 ± 0.13. For E43F, the abundance fitness was -0.237 ± 0.079. E43Q showed an abundance fitness of -0.002 ± 0.07. With E43C the abundance fitness was -0.165 ± 0.1. E43T showed an abundance fitness of -0.022 ± 0.06. Variant E43A has an abundance fitness of -0.085 ± 0.054. E43V showed an abundance fitness of -0.12 ± 0.059. With A35V the abundance fitness was -0.727 ± 0.19. Work on A35L yielded an abundance fitness of -0.289 ± 0.068. For A35Y, the abundance fitness was -0.197 ± 0.13. With A35S the abundance fitness was -0.037 ± 0.05. Work on A35K yielded an abundance fitness of -0.024 ± 0.13. With A35P the abundance fitness was -0.826 ± 0.12. A35M showed an abundance fitness of -0.22 ± 0.09. For A35R, the abundance fitness was 0.12 ± 0.048. With A35Q the abundance fitness was -0.01 ± 0.071. With A35W the abundance fitness was -0.16 ± 0.076. In the case of A35T, the abundance fitness is reported as -0.066 ± 0.08. D39H showed an abundance fitness of -0.065 ± 0.09. With D39L the abundance fitness was -0.224 ± 0.042. D39G gave an abundance fitness of -0.21 ± 0.065. Variant D39P has an abundance fitness of -0.829 ± 0.11. Variant D39Y has an abundance fitness of -0.231 ± 0.085. With D39T the abundance fitness was -0.292 ± 0.092. For D39F, the abundance fitness was -0.167 ± 0.07. In the case of D39A, the abundance fitness is reported as -0.026 ± 0.064. For D39C, the abundance fitness was -0.055 ± 0.43. D39W gave an abundance fitness of -0.211 ± 0.074. D39E showed an abundance fitness of 0.022 ± 0.084. D39M gave an abundance fitness of -0.191 ± 0.08. With D39S the abundance fitness was 0.021 ± 0.045. With D39R the abundance fitness was -0.016 ± 0.05. Work on D39Q yielded an abundance fitness of 0.003 ± 0.088. D39N showed an abundance fitness of -0.217 ± 0.21. D39V showed an abundance fitness of -0.262 ± 0.071. Work on G42N yielded an abundance fitness of 0.108 ± 0.079. Work on G42F yielded an abundance fitness of -1.05 ± 0.32. Variant G42R has an abundance fitness of -0.275 ± 0.052. For G42Q, the abundance fitness was -0.153 ± 0.09. With G42S the abundance fitness was 0.086 ± 0.048. In the case of G42K, the abundance fitness is reported as -0.037 ± 0.077. With G42C the abundance fitness was 0.04 ± 0.085. With G42H the abundance fitness was -0.075 ± 0.11. G42D gave an abundance fitness of 0.067 ± 0.085. For G42W, the abundance fitness was -0.858 ± 0.14. G42M gave an abundance fitness of -0.613 ± 0.068. Work on G42V yielded an abundance fitness of -0.59 ± 0.079. G42A showed an abundance fitness of -0.088 ± 0.052. With G42Y the abundance fitness was -0.525 ± 0.15. Work on Q45D yielded an abundance fitness of 0.132 ± 0.16. In the case of Q45F, the abundance fitness is reported as -0.339 ± 0.091. Work on Q45E yielded an abundance fitness of 0.092 ± 0.13. For Q45A, the abundance fitness was -0.154 ± 0.075. Variant Q45G has an abundance fitness of -0.17 ± 0.055. For Q45C, the abundance fitness was -0.486 ± 0.087. S36E gave an abundance fitness of 0.044 ± 0.042. With S36Q the abundance fitness was 0.164 ± 0.065. S36L gave an abundance fitness of -0.344 ± 0.052. S36W showed an abundance fitness of -0.671 ± 0.13. For S36P, the abundance fitness was -0.587 ± 0.12. Variant S36Y has an abundance fitness of -0.182 ± 0.08. With S36M the abundance fitness was -0.097 ± 0.057. Work on S36A yielded an abundance fitness of 0.005 ± 0.036. Variant S36F has an abundance fitness of -0.242 ± 0.12. With S36V the abundance fitness was -0.218 ± 0.065. With S36H the abundance fitness was -0.065 ± 0.11. With S36G the abundance fitness was 0.01 ± 0.053. Variant S36C has an abundance fitness of -0.317 ± 0.24. Work on S36I yielded an abundance fitness of -0.191 ± 0.094. In the case of S36R, the abundance fitness is reported as -0.114 ± 0.056. S36N showed an abundance fitness of -0.054 ± 0.076. Work on S36D yielded an abundance fitness of -0.03 ± 0.096. In the case of S36T, the abundance fitness is reported as 0.067 ± 0.067.
